Test results published in US20090011981A1, “Novel Inhibitors of Angiogenesis” (K.U. LEUVEN RESEARCH & DEVELOPMENT, priority 2004, published 2009).
Values joined by “and” are separate entries in the source; they are usually repeats but may differ in a detail not shown here. Equal values may be shown once.

Assays:
[1] = test system: bFGF-induced angiogenesis (rat cornea neovascularization); assay: Rat corneal micropocket assay for angiogenesis; type: in vivo
Protocol: In vivo angiogenesis was assessed using the rat cornea micropocket assay as previously described [Addison et al. cited above]. Briefly, reagents were diluted in PBS plus 0.25% serum albumin to their final concentration per pellet of Hydron casting solution (Hydro Med Sciences, New Brunswick N.J.). 5 μl aliquots were pipetted onto the flat surface of a sterile polypropylene specimen container and were allowed to polymerize overnight under UV light in a laminar flow hood. Prior to implantation, the pellets were rehydrated with normal saline. Animals were given 150 mg/kg ketamine and 250 μg/kg atropine, and the corneas were anesthetized with 0.5% proparacaine hydrochloride ophthalmic solution followed by implantation of the Hydron pellet into an intracorneal pocket (1-2 mm from the limbus). Six days after implantation, animals received heparin (1000 U) and ketamine (150 mg/kg) i.p. 30 min prior to sacrifice, followed by perfusion with 10 ml of colloidal carbon via the left ventricle. Corneas were then harvested and photographed. […] Sustained directional ingrowth of capillary sprouts and hairpin loops toward the implant were considered positive neovascularization responses.

[2] = test system: murine melanoma cells; details: systemic treatment, mice injected i.v. with murine melanoma cells; cited from earlier work
[3] = test system: Human lung microvascular endothelial cells (HMVEC-L); assay: Endothelial cell chemotaxis assay (bFGF- or CXCL8-induced HMVEC migration); type: cell-based; details: for inhibition of CXCL8-induced HMVEC chemotaxis: CXCL8 80 ng/ml; for inhibition of the migration of the cells: at a concentration of 50 ng/ml; for inhibition of bFGF-induced HMVEC chemotaxis: bFGF 50 ng/ml; for migration of HMVEC toward bFGF or CXCL8 (FIG. 4 Panel C): test protein 50 ng/ml, bFGF 50 ng/ml or CXCL8 80 ng/ml
Protocol: Human lung microvascular endothelial cells (HMVEC-L) were obtained from Clonetics (Walkersville, Md.), and were cultured following the manufacturer's instructions in EBM-2 medium supplemented with the EGM-2-MV “bulletkit” containing FCS, ascorbic acid, hydrocortisone, fibroblast growth factor (FGF), vascular endothelial growth factor (VEGF), insulin-like growth factor I (IGF-I) and epidermal growth factor (EGF). Endothelial cell chemotaxis assays were performed as previously described [Addison et al. (2002) J Immunol 165, 5269-5277]. Cells were harvested by trypsinization, resuspended in EBM-2 medium without growth factors with 2% FCS added. An aliquot of 160 μl containing 5×10^5 cells/ml was added to each of the lower wells of a 12-well chemotaxis chamber (Neuro Probe Inc., Cabin John Md.). The chambers were assembled (by placing 0.1% gelatin coated 5 μm pore size filters over the lower wells, followed by a gasket and the upper chamber) and incubated at 37° C. in a CO2 incubator for 2 h in an inverted position. The chambers were then turned upright, and 100 μl aliquots of sample dilutions were added to the upper wells of the chamber. As endothelial cell chemoattractants CXCL8 and bFGF (both from Peprotech) were used. The chambers were placed in a 37° C. CO2 incubator for 2 h at which time the filters were removed, and subjected to Diff-Quik staining. The total number of migrated cells was counted in 15 separate fields of view under 400× power.

[4] = Heparin-Sepharose affinity chromatography (heparin affinity); type: binding; details: for salt concentration at elution from heparin-Sepharose column: linear NaCl gradient 0.05-2 M, pH 7.4
Protocol: For large scale PF4 production, outdated platelets (Red Cross blood transfusion centre, Belgium) were stimulated with 1 U/ml thrombin (Sigma, St. Louis, Mo.) for 2 h at 37° C. in PBS. The conditioned medium was subsequently purified by a purification procedure previously described [Struyf et al (2003), cited above, Van Damme et al. (1992) J Exp Med 176, 59-65; Struyf et al. (2000) in Balkwill, F. ed. Cytokine molecular biology, a practical approach. Oxford, UK, Oxford University Press, pp 73-88]. The conditioned media (1 to 5 liters) were first concentrated and partially purified by adsorption to silica (“Silica Matrex”; pore size 100 A, particle size 35-70 μm; Millipore, Billerica, Mass.; 10 g/l conditioned medium). After 2 h of magnetical stirring at 4° C., the silicic acid was sedimented by centrifugation and subsequently washed once with PBS and once with PBS containing 1 M NaCl pH 7.4. Elution of proteins from the silica matrix was done by magnetically stirring three consecutive times with 100 ml of PBS containing 1.4 M NaCl and 50% ethylene glycol pH 7.4 during 30 min at 4° C. A second elution with 0.3 M glycine/HCl pH 2.0 buffer (2×100 ml) was performed to improve recovery of chemokines. Subsequently, the pooled eluates (500 ml) were dialyzed against equilibration/loading buffer (50 mM Tris/HCl-50 mM NaCl, pH 7.4) before fractionation by heparin-Sepharose chromatography (Amersham Pharmacia Biotech, Uppsala, Sweden). Proteins were eluted from the column in a linear NaCl gradient (0.05-2 M NaCl in the loading buffer; 5 ml-fractions). For all fractions, the protein concentration was determined by a Coomassie blue G-250 binding assay using the Bio-Rad commercial kit (Bio-Rad Laboratories, Hercules, Calif.). […] Purified fractions were analyzed by SDS-PAGE under reducing conditions to determine purity. […]

[5] = test system: B16 melanoma tumors; assay: Intratumoral injection of B16 melanoma tumors; type: in vivo, athymic nu/nu mice; details: 1 μg recombinant human PF4var1, 6 intratumoral injections over 2 weeks, B16 melanoma in nu/nu mice
Protocol: Animal experiments were approved by the local animal ethics committee (University of Leuven), and conducted in conformity with the Belgian and European guidelines for the protection of animals used for scientific purposes. Experiments were performed with 6 to 8 weeks old female athymic nu/nu mice (NMRI background) kept in a specific pathogen-free environment (Elevage Janvier, Le Genest Saint Isle, France). Two consecutive experiments were performed, the first comprising 20 mice, the second 18 mice. B16 melanoma cells in log phase (2×10^6 cells resuspended in 200 μl of PBS) were injected subcutaneously on day 1 in the right dorsal flank. Animals were injected at the tumor site with 50 μl of test sample, i.e. endotoxin-free saline (0.9% NaCl, Baxter, Lessines, Belgium), 5 pg of natural human PF4 or 1 μg of recombinant human PF4var1 in saline. Treatment started on day 3, in total 6 intratumoral injections were administered three times a week over a period of 2 weeks. All animals were observed three times a week, the tumor dimensions were measured with calipers and tumor size was calculated (tumor volume=4/3Πab^2; a is the smallest diameter/2 and b is the largest diameter/2 in millimeters). At the end of the experiments tumor size was calculated more precisely after dissection of the tumor using the formula 4/3Πabc (a, b and c width/2, length/2 and depth/2, respectively). […]

[6] = 50 ng of the cytokine alone, six days after implantation
[7] = 50 ng combined with bFGF (50 ng)

| heparin binding affinity compared with PF4 ([4]; based on elution at lower salt concentrations from heparin-Sepharose) | Molecule | No of neg pellets (no neovascularization / total pellets implanted) [1, 6] | No of pos pellets (angiogenic response / total pellets implanted) [1, 6] | dose for optimal inhibition of metastases or lung weight [2] | inhibition of CXCL8-induced HMVEC chemotaxis ([3]; test protein 300 ng/ml) | inhibition of the migration of the cells [3] | inhibition of migration of HMVEC ([3]; at concentrations as high as 300 ng/ml, toward bFGF or CXCL8) | inhibition of bFGF-induced HMVEC chemotaxis ([3]; test protein 300 ng/ml) | migration of HMVEC toward bFGF or CXCL8 (FIG. 4 Panel C) [3] | % inhibition of bFGF-induced angiogenesis [1, 7] | No of neg pellets (no neovascularization / total pellets implanted) [1, 7] | No of pos pellets (angiogenic response / total pellets implanted) [1, 7] | salt concentration at elution from heparin-Sepharose column [4] | inhibition of CXCL8-induced HMVEC chemotaxis ([3]; test protein 10-100 ng/ml) | potency on angiogenesis relative to PF4 ([3]; PF4var1 versus PF4) | inhibition of bFGF-induced HMVEC chemotaxis ([3]; test protein 10-100 ng/ml) | concentration giving an inhibition of 50% of the migration of HMVEC ([3]; chemotaxis of HMVEC toward bFGF or CXCL8) | tumor growth [5] |
| --- | --- | --- | --- | --- | --- | --- | --- | --- | --- | --- | --- | --- | --- | --- | --- | --- | --- | --- |
|  | bFGF: Fibroblast growth factor used as endothelial cell chemoattractant and angiogenesis inducer (Peprotech) [reference compound] | 0/25 | 25/25 |  |  |  |  |  |  |  |  |  |  |  |  |  |  |  |
|  | PF4: Platelet Factor 4, CXC chemokine; authentic natural human PF4 purified from platelets as comparator (protein) EAEEDGDLQCLCVKTTSQVRPRHITSLEVIKAGPHCPTAQLIATLKNGRKICLDLQAPLYKKIIKKLLES | 17/22 | 5/22 | > 5 mg PF4 per kg of body weight | failed to inhibit | ~80% | practically no inhibition | failed to inhibit | reduce migration | 23% | 5 of 22 and 5/22 | 17/22 | 1.6-1.8 M NaCl |  |  |  |  |  |
| lower affinity than PF4 | PF4var1: natural and recombinant versions of the human natural variant of the PF4 protein; 70 amino acid mature form, SEQ ID NO: 1 (protein, listed as Homo sapiens, mat_peptide (1)..(70) PFvar1) EAEEDGDLQCLCVKTTSQVRPRHITSLEVIKAGPHCPTAQLIATLKNGRKICLDLQALLYKKIIKEHLES | 21/22 | 1/22 |  |  | ~100% |  |  | reduce migration | 73% | 16 of 22 and 16/22 | 6/22 | 1-1.4 M NaCl | completely blocked | 100 fold | completely blocked | around 2.5 ng/ml | capable of reducing tumor growth |
